{"source": "IntAct's records for PubMed 22505024", "parents": {"B1": {"name": "ERBB receptor feedback inhibitor 1 (Homo sapiens), Q9UJM3 (parent)", "chain": "MSIAGVAAQEIRVPLKTGFLHNGRAMGNMRKTYWSSRSEFKNNFLNIDPITMAYSLNSSAQERLIPLGHASKSAPMNGHCFAENGPSQKSSLPPLLIPPSENLGPHEEDQVVCGFKKLTVNGVCASTPPLTPIKNSPSLFPCAPLCERGSRPLPPLPISEALSLDDTDCEVEFLTSSDTDFLLEDSTLSDFKYDVPGRRSFRGCGQINYAYFDTPAVSAADLSYVSDQNGGVPDPNPPPPQTHRRLRRSHSGPAGSFNKPAIRISNCCIHRASPNSDEDKPEVPPRVPIPPRPVKPDYRRWSAEVTSSTYSDEDRPPKVPPREPLSPSNSRTPSPKSLPSYLNGVMPPTQSFAPDPKYVSSKALQRQNSEGSASKVPCILPIIENGKKVSSTHYYLLPERPPYLDKYEKFFREAEETNGGAQIQPLPADCGISSATEKPDSKTKMDLGGHVKRKHLSYVVSP", "partner": "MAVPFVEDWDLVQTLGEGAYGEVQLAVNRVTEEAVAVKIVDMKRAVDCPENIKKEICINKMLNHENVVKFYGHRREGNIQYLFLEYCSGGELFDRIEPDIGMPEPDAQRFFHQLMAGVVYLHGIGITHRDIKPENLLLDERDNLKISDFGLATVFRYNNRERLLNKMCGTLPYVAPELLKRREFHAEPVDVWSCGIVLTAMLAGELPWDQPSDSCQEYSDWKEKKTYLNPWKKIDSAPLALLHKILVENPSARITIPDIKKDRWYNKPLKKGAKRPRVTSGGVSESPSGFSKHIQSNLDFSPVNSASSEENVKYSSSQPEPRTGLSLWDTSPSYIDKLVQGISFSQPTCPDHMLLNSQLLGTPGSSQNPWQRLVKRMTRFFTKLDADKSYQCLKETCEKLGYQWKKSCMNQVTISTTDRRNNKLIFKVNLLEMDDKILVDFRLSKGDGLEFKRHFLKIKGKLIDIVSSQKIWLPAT"}}, "data": [{"variants_of": "B1", "settings": "with chk1_human CHEK1, O14757", "values": [{"variant": "MSIAGVAAQEIRVPLKTGFLHNGRAMGNMRKTYWSSRSEFKNNFLNIDPITMAYSLNSSAQERLIPLGHASKSAPMNGHCFAENGPSQKSSLPPLLIPPSENLGPHEEDQVVCGFKKLTVNGVCASTPPLTPIKNSPSLFPCAPLCERGSRPLPPLPISEALSLDDTDCEVEFLTSSDTDFLLEDSTLSDFKYDVPGRRSFRGCGQINYAYFDTPAVSAADLSYVSDQNGGVPDPNPPPPQTHRRLRRAHSGPAGSFNKPAIRISNCCIHRASPNSDEDKPEVPPRVPIPPRPVKPDYRRWSAEVTSSTYSDEDRPPKVPPREPLSPSNSRTPSPKSLPSYLNGVMPPTQSFAPDPKYVSSKALQRQNSEGSASKVPCILPIIENGKKVSSTHYYLLPERPPYLDKYEKFFREAEETNGGAQIQPLPADCGISSATEKPDSKTKMDLGGHVKRKHLSYVVSP", "note": "[S249A]", "effect of a mutation on the interaction": "decreasing interaction"}, {"variant": "MSIAGVAAQEIRVPLKTGFLHNGRAMGNMRKTYWSSRSEFKNNFLNIDPITMAYSLNSSAQERLIPLGHASKSAPMNGHCFAENGPSQKSSLPPLLIPPSENLGPHEEDQVVCGFKKLTVNGVCASTPPLTPIKNSPSLFPCAPLCERGSRPLPPLPISEALSLDDTDCEVEFLTSSDTDFLLEDSTLSDFKYDVPGRRSFRGCGQINYAYFDTPAVSAADLSYVSDQNGGVPDPNPPPPQTHRRLRRSHAGPAGSFNKPAIRISNCCIHRASPNSDEDKPEVPPRVPIPPRPVKPDYRRWSAEVTSSTYSDEDRPPKVPPREPLSPSNSRTPSPKSLPSYLNGVMPPTQSFAPDPKYVSSKALQRQNSEGSASKVPCILPIIENGKKVSSTHYYLLPERPPYLDKYEKFFREAEETNGGAQIQPLPADCGISSATEKPDSKTKMDLGGHVKRKHLSYVVSP", "note": "[S251A]", "effect of a mutation on the interaction": "decreasing interaction"}]}, {"variants_of": "B1", "settings": "with chk1_human CHEK1, O14757", "remark": "another data set of the same source", "values": [{"variant": "MSIAGVAAQEIRVPLKTGFLHNGRAMGNMRKTYWSSRSEFKNNFLNIDPITMAYSLNSSAQERLIPLGHASKSAPMNGHCFAENGPSQKSSLPPLLIPPSENLGPHEEDQVVCGFKKLTVNGVCASTPPLTPIKNSPSLFPCAPLCERGSRPLPPLPISEALSLDDTDCEVEFLTSSDTDFLLEDSTLSDFKYDVPGRRSFRGCGQINYAYFDTPAVSAADLSYVSDQNGGVPDPNPPPPQTHRRLRRSHSGPAGSFNKPAIRISNCCIHRASPNSDEDKPEVPPRVPIPPRPVKPDYRRWSAEVTSSTYSDEDRPPKVPPREPLSPSNSRTPSPKSLPSYLNGVMPPTQSFAPDPKYVSSKALQRQNAEGSASKVPCILPIIENGKKVSSTHYYLLPERPPYLDKYEKFFREAEETNGGAQIQPLPADCGISSATEKPDSKTKMDLGGHVKRKHLSYVVSP", "note": "[S369A]", "effect of a mutation on the interaction": "decreasing interaction"}, {"variant": "MSIAGVAAQEIRVPLKTGFLHNGRAMGNMRKTYWSSRSEFKNNFLNIDPITMAYSLNSSAQERLIPLGHASKSAPMNGHCFAENGPSQKSSLPPLLIPPSENLGPHEEDQVVCGFKKLTVNGVCASTPPLTPIKNSPSLFPCAPLCERGSRPLPPLPISEALSLDDTDCEVEFLTSSDTDFLLEDSTLSDFKYDVPGRRSFRGCGQINYAYFDTPAVSAADLSYVSDQNGGVPDPNPPPPQTHRRLRRSHSGPAGSFNKPAIRISNCCIHRASPNSDEDKPEVPPRVPIPPRPVKPDYRRWSAEVTSSTYSDEDRPPKVPPREPLSPSNSRTPAPKSLPSYLNGVMPPTQSFAPDPKYVSSKALQRQNSEGSASKVPCILPIIENGKKVSSTHYYLLPERPPYLDKYEKFFREAEETNGGAQIQPLPADCGISSATEKPDSKTKMDLGGHVKRKHLSYVVSP", "note": "[S334A]", "effect of a mutation on the interaction": "decreasing interaction"}, {"variant": "MSIAGVAAQEIRVPLKTGFLHNGRAMGNMRKTYWSSRSEFKNNFLNIDPITMAYSLNSSAQERLIPLGHASKSAPMNGHCFAENGPSQKSSLPPLLIPPSENLGPHEEDQVVCGFKKLTVNGVCASTPPLTPIKNSPSLFPCAPLCERGSRPLPPLPISEALSLDDTDCEVEFLTSSDTDFLLEDSTLSDFKYDVPGRRSFRGCGQINYAYFDTPAVSAADLSYVSDQNGGVPDPNPPPPQTHRRLRRSHSGPAGSFNKPAIRISNCCIHRASPNSDEDKPEVPPRVPIPPRPVKPDYRRWAAEVTSSTYSDEDRPPKVPPREPLSPSNSRTPSPKSLPSYLNGVMPPTQSFAPDPKYVSSKALQRQNSEGSASKVPCILPIIENGKKVSSTHYYLLPERPPYLDKYEKFFREAEETNGGAQIQPLPADCGISSATEKPDSKTKMDLGGHVKRKHLSYVVSP", "note": "[S302A]", "effect of a mutation on the interaction": "decreasing interaction"}]}]}
